The assay concerns the target PME crude extract of Arabidopsis thaliana stem (Arabidopsis thaliana). In words: cell-based or functional assay.

In turn, “recombinant GhPMEI39 protein (pColdTF-GhPMEI39 fusion protein with 6xHis-Tag, expressed in Escherichia coli BL21 (DE3))” displayed a PME enzyme activity in the reaction solution (pectin / bromothymol blue, OD 620 nm) at PME:GhPMEI39 1:2 of 24%.
